The labels stand for the following.
B1: ANKRD40 (parent)
chain: VRIQNPSLRENDFIEIELDRQELT
B2: TRIM55 (parent)
chain: FQMEKIEHGYENMNHFTVNLNREE
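Note: lentivirally expressed fusions sorted by FACS into six bins by GFP to DsRed ratio, PSI derived from sequencing read proportions per bin multiplied by bin number.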

Variants of B1 are the subject of the first data set. The experiment in a line: protein stability index of a GFP-peptide fusion (GPS, HEK-293T) (PSI 1-6); higher = more stable. The settings on record: c terminus: a fixed tail appended.
As for VRIQNPSLRENDFIEIELSRQELT, the protein stability index was determined as 1.92.

On to VRIQNPSLRENDFIEIELKRQELT, for which the protein stability index came to 2.24.

Take VRIQNPSLRENDFIEIELMRQELT: the protein stability index came to 1.65.

Regarding VRIQNPSLRENDFIEIELCRQELT, the protein stability index is 1.89.

For VRIQNPSLRENDFIEIELGRQELT, the protein stability index is 1.8.

VRIQNPSLRENDFIEIELTRQELT: the protein stability index was 1.94.

For the variant VRIQNPSLRENDFIEIELVRQELT, the protein stability index is 1.92.

Take VRIQNPSLRENDFIEIELFRQELT: the protein stability index worked out at 1.56.

Take VRIQNPSLRENDFIEIELDRNELT: the protein stability index was determined as 2.99.

With VRIQNPSLRENDFIEIELDRTELT, the protein stability index stood at 2.47.

VRIQNPSLRENDFIEIELDRPELT: the protein stability index came to 2.46.

With VRIQNPSLRENDFIEIELDRAELT, the protein stability index is 2.05.

For the variant VRIQNPSLRENDFIEIELDRDELT, the protein stability index worked out at 1.84.

For the variant VRIQNPSLRENDFIEIELDRSELT, the protein stability index was 2.08.

As to VRIQNPSLRENDFIEIELDREELT, the protein stability index came to 2.82.

As for VRIQNPSLRENDFIEIELDRWELT, the protein stability index turned out to be 1.73.

On to VRIQNPSLRENDFIEIELDRKELT, for which the protein stability index was determined as 2.24.

In the case of VRIQNPSLRENDFIEIELDRIELT, the protein stability index came to 1.31.

Consider VRIQNPSLRENDFIEIELDRLELT, for which the protein stability index stood at 1.8.

In the case of VRIQNPSLRENDFIEIELDRYELT, the protein stability index was determined as 2.32.

With VRIQNPSLRENDFIEIELDRVELT, the protein stability index is 1.76.

Consider VRIQNPSLRENDFIEIELDRHELT, for which the protein stability index turned out to be 2.12.

Regarding VRIQNPSLRENDFIEIELDRRELT, the protein stability index came to 2.24.

With VRIQNPSLRENDFIEIELDRGELT, the protein stability index was determined as 2.32.

As to VRIQNPSLRENDFIEIELDRFELT, the protein stability index is 1.77.

For the variant VRIQNPSLRENDFIEIELDRMELT, the protein stability index was 2.01.

Regarding VRIQNPSLRENDFIEIELDRCELT, the protein stability index worked out at 2.15.

Variants of B2 are the subject of another data set. The data set is described as above. The settings on record: c terminus: a fixed tail appended.
In the case of FQYEKIEHGYENMNHFTVNLNREE, the protein stability index turned out to be 3.06.

In the case of FQGEKIEHGYENMNHFTVNLNREE, the protein stability index was found to be 3.62.

Consider FQPEKIEHGYENMNHFTVNLNREE, for which the protein stability index amounted to 2.91.

In the case of FQWEKIEHGYENMNHFTVNLNREE, the protein stability index stood at 2.11.

In the case of FQNEKIEHGYENMNHFTVNLNREE, the protein stability index was found to be 3.36.

In the case of FQVEKIEHGYENMNHFTVNLNREE, the protein stability index was found to be 2.8.

On to FQTEKIEHGYENMNHFTVNLNREE, for which the protein stability index came to 3.44.

As for FQLEKIEHGYENMNHFTVNLNREE, the protein stability index is 2.82.

As for FQIEKIEHGYENMNHFTVNLNREE, the protein stability index amounted to 2.82.

Take FQQEKIEHGYENMNHFTVNLNREE: the protein stability index was found to be 3.41.

Take FQEEKIEHGYENMNHFTVNLNREE: the protein stability index is 5.07.

Regarding FQDEKIEHGYENMNHFTVNLNREE, the protein stability index turned out to be 4.53.

On to FQREKIEHGYENMNHFTVNLNREE, for which the protein stability index amounted to 2.66.

Consider FQAEKIEHGYENMNHFTVNLNREE, for which the protein stability index came to 2.57.

For the variant FQFEKIEHGYENMNHFTVNLNREE, the protein stability index was determined as 2.86.

For the variant FQKEKIEHGYENMNHFTVNLNREE, the protein stability index came out at 2.68.

For FQSEKIEHGYENMNHFTVNLNREE, the protein stability index stood at 2.88.

On to FQCEKIEHGYENMNHFTVNLNREE, for which the protein stability index was 2.83.

Consider FQHEKIEHGYENMNHFTVNLNREE, for which the protein stability index came out at 3.43.

For the variant FNMEKIEHGYENMNHFTVNLNREE, the protein stability index came to 3.8.

As to FMMEKIEHGYENMNHFTVNLNREE, the protein stability index is 3.42.

Turning to FIMEKIEHGYENMNHFTVNLNREE, the protein stability index was 2.06.

On to FCMEKIEHGYENMNHFTVNLNREE, for which the protein stability index is 2.57.

Turning to FKMEKIEHGYENMNHFTVNLNREE, the protein stability index was found to be 3.49.

Regarding FWMEKIEHGYENMNHFTVNLNREE, the protein stability index worked out at 2.62.

As for FPMEKIEHGYENMNHFTVNLNREE, the protein stability index was found to be 3.86.

With FSMEKIEHGYENMNHFTVNLNREE, the protein stability index was determined as 3.98.

In the case of FYMEKIEHGYENMNHFTVNLNREE, the protein stability index came out at 2.52.

On to FGMEKIEHGYENMNHFTVNLNREE, for which the protein stability index was found to be 3.7.

For FAMEKIEHGYENMNHFTVNLNREE, the protein stability index was determined as 3.14.

Consider FLMEKIEHGYENMNHFTVNLNREE, for which the protein stability index is 2.96.

As to FTMEKIEHGYENMNHFTVNLNREE, the protein stability index stood at 3.35.

FEMEKIEHGYENMNHFTVNLNREE: the protein stability index is 4.49.

FDMEKIEHGYENMNHFTVNLNREE: the protein stability index stood at 4.1.

For the variant FHMEKIEHGYENMNHFTVNLNREE, the protein stability index was 2.28.

For FRMEKIEHGYENMNHFTVNLNREE, the protein stability index is 3.07.

As to FFMEKIEHGYENMNHFTVNLNREE, the protein stability index was determined as 2.69.

For the variant AQMEKIEHGYENMNHFTVNLNREE, the protein stability index turned out to be 4.71.

Regarding YQMEKIEHGYENMNHFTVNLNREE, the protein stability index was determined as 3.3.

Turning to KQMEKIEHGYENMNHFTVNLNREE, the protein stability index was found to be 4.17.

For the variant VQMEKIEHGYENMNHFTVNLNREE, the protein stability index was determined as 4.19.

On to QQMEKIEHGYENMNHFTVNLNREE, for which the protein stability index is 4.85.

GQMEKIEHGYENMNHFTVNLNREE: the protein stability index came to 4.78.

As to CQMEKIEHGYENMNHFTVNLNREE, the protein stability index is 3.72.

With IQMEKIEHGYENMNHFTVNLNREE, the protein stability index was determined as 4.23.

As for SQMEKIEHGYENMNHFTVNLNREE, the protein stability index stood at 4.48.

As to RQMEKIEHGYENMNHFTVNLNREE, the protein stability index was determined as 4.45.

For the variant EQMEKIEHGYENMNHFTVNLNREE, the protein stability index was determined as 5.1.

Consider PQMEKIEHGYENMNHFTVNLNREE, for which the protein stability index worked out at 4.65.

Consider WQMEKIEHGYENMNHFTVNLNREE, for which the protein stability index stood at 3.78.

DQMEKIEHGYENMNHFTVNLNREE: the protein stability index turned out to be 4.61.

For LQMEKIEHGYENMNHFTVNLNREE, the protein stability index worked out at 4.05.

On to NQMEKIEHGYENMNHFTVNLNREE, for which the protein stability index worked out at 5.02.

For TQMEKIEHGYENMNHFTVNLNREE, the protein stability index is 4.67.

In the case of HQMEKIEHGYENMNHFTVNLNREE, the protein stability index was 4.58.

As for MQMEKIEHGYENMNHFTVNLNREE, the protein stability index was found to be 4.27.

Turning to FQMNKIEHGYENMNHFTVNLNREE, the protein stability index was 2.64.

As for FQMCKIEHGYENMNHFTVNLNREE, the protein stability index is 2.16.

On to FQMFKIEHGYENMNHFTVNLNREE, for which the protein stability index was determined as 1.58.

On to FQMLKIEHGYENMNHFTVNLNREE, for which the protein stability index was 2.43.

As to FQMGKIEHGYENMNHFTVNLNREE, the protein stability index was found to be 2.45.

Consider FQMAKIEHGYENMNHFTVNLNREE, for which the protein stability index came out at 2.5.

FQMIKIEHGYENMNHFTVNLNREE: the protein stability index is 2.24.

Regarding FQMKKIEHGYENMNHFTVNLNREE, the protein stability index is 2.37.

As to FQMMKIEHGYENMNHFTVNLNREE, the protein stability index was 1.73.

For the variant FQMHKIEHGYENMNHFTVNLNREE, the protein stability index was found to be 2.66.

As for FQMDKIEHGYENMNHFTVNLNREE, the protein stability index came to 2.76.
